This is an account of results in paper doi:10.1101/2025.11.11.685192 (bioRxiv, 2025).

For series [1], the target named is full-length gp130 ΔSY with additional D4-D6 deletion (gp130 ΔSYΔ(D4-D6)) (human) (UniProt P40189). Nature of the series: cryo-EM structure.
The target in series [2] is full-length gp130 ΔSY with an additional D1 deletion (gp130 ΔSYΔD1) (human) (UniProt P40189). In words: cryo-EM structure.
The target of series [3] is gp130 D215G mutant, soluble extracellular domain (gp130 D215G ECD) (human). In words: cryo-EM structure.
The target of series [4] is gp130 S187-Y190 deletion mutant, soluble extracellular domain (gp130 ΔSY ECD) (human). In words: SEC + SEC-MALS + native gel or EMSA. (In general: Mobility shift assays separate free from complexed probe on a gel.)
The target is the same in series [5]. Nature of the series: cryo-EM structure.
Series [6] deals with gp130 V252G mutant, soluble extracellular domain (gp130 V252G ECD) (human). Nature of the series: cryo-EM structure.
The series “cryo-EM structure” deals with the molecule itself. In words: cryo-EM structure.
The series “native gel or EMSA” concerns the molecule itself. Nature of the series: native gel or EMSA.

A word on the stoichiometry N: it is the number of molecules, sites or subunits per partner or assembly. “full-length gp130 ΔSY with additional D4-D6 deletion (gp130 ΔSYΔ(D4-D6)) (from UniProt P40189 23-918) (receptor)” yielded a stoichiometry N in series [1] of 2.

In series [2], “full-length gp130 ΔSY with an additional D1 deletion (gp130 ΔSYΔD1) (from UniProt P40189 23-918) (receptor)” showed a stoichiometry N of 2.

In series [3], “gp130 D215G mutant, soluble extracellular domain (gp130 D215G ECD) (domain or fragment)” registered a stoichiometry N of 2.

For the molecule “gp130 S187-Y190 deletion mutant, soluble extracellular domain (gp130 ΔSY ECD) (domain or fragment)”, the stoichiometry N in series [4] and in series [5] was 2 in each case.

Turning to “gp130 V252G mutant, soluble extracellular domain (gp130 V252G ECD) (domain or fragment)”, the stoichiometry N in series [6] was 2.

B1: full-length gp130 A418-F421 deletion mutant (gp130 ΔAF) (receptor, human, UniProt P40189 23-918, looked up)
chain: ELLDPCGYISPESPVVQLHSNFTAVCVLKEKCMDYFHVNANYIVWKTNHFTIPKEQYTIINRTASSVTFTDIASLNIQLTCNILTFGQLEQNVYGITIISGLPPEKPKNLSCIVNEGKKMRCEWDGGRETHLETNFTLKSEWATHKFADCKAKRDTPTSCTVDYSTVYFVNIEVWVEAENALGKVTSDHINFDPVYKVKPNPPHNLSVINSEELSSILKLTWTNPSIKSVIILKYNIQYRTKDASTWSQIPPEDTASTRSSFTVQDLKPFTEYVFRIRCMKEDGKGYWSDWSEEASGITYEDRPSKAPSFWYKIDPSHTQGYRTVQLVWKTLPPFEANGKILDYEVTLTRWKSHLQNYTVNATKLTVNLTNDRYLATLTVRNLVGKSDAAVLTIPQATHPVMDLKAFPKDNMLWVEWTTPRESVKKYILEWCVLSDKAPCITDWQQEDGTVHRTYLRGNLAESKCYLITVTPVYADGPGSPESIKAYLKQAPPSKGPTVRTKKVGKNEAVLEWDQLPVDVQNGFIRNYTIFYRTIIGNETAVNVDSSHTEYTLSSLTSDTLYMVRMAAYTDEGGKDGPEFTFTTPKFAQGEIEAIVVPVCLAFLLTTLLGVLFCFNKRDLIKKHIWPNVPDPSKSHIAQWSPHTPPRHNFNSKDQMYSDGNFTDVSVVEIEANDKKPFPEDLKSLDLFKKEKINTEGHSSGIGGSSCMSSSRPSISSSDENESSQNTSSTVQYSTVVHSGYRHQVPSVQVFSRSESTQPLLDSEERPEDLQLVDHVDGGDGILPRQQYFKQNCSQHESSPDISHFERSKQVSSVNEEDFVRLKQQISDHISQSCGSGQMKMFQEVSAADAFGPGTEGQVERFETVGMEAATDEGMPKSYLPQTVRQGGYMPQ
As to B1, in “cryo-EM structure”, the “stoichiometry N” value stood at 2.

B2: full-length gp130 K173-D177 deletion mutant (gp130 ΔKD) (receptor, human, UniProt P40189 23-918, looked up)
chain: ELLDPCGYISPESPVVQLHSNFTAVCVLKEKCMDYFHVNANYIVWKTNHFTIPKEQYTIINRTASSVTFTDIASLNIQLTCNILTFGQLEQNVYGITIISGLPPEKPKNLSCIVNEGKKMRCEWDGGRETHLETNFTLKSEWATHKFADCTPTSCTVDYSTVYFVNIEVWVEAENALGKVTSDHINFDPVYKVKPNPPHNLSVINSEELSSILKLTWTNPSIKSVIILKYNIQYRTKDASTWSQIPPEDTASTRSSFTVQDLKPFTEYVFRIRCMKEDGKGYWSDWSEEASGITYEDRPSKAPSFWYKIDPSHTQGYRTVQLVWKTLPPFEANGKILDYEVTLTRWKSHLQNYTVNATKLTVNLTNDRYLATLTVRNLVGKSDAAVLTIPACDFQATHPVMDLKAFPKDNMLWVEWTTPRESVKKYILEWCVLSDKAPCITDWQQEDGTVHRTYLRGNLAESKCYLITVTPVYADGPGSPESIKAYLKQAPPSKGPTVRTKKVGKNEAVLEWDQLPVDVQNGFIRNYTIFYRTIIGNETAVNVDSSHTEYTLSSLTSDTLYMVRMAAYTDEGGKDGPEFTFTTPKFAQGEIEAIVVPVCLAFLLTTLLGVLFCFNKRDLIKKHIWPNVPDPSKSHIAQWSPHTPPRHNFNSKDQMYSDGNFTDVSVVEIEANDKKPFPEDLKSLDLFKKEKINTEGHSSGIGGSSCMSSSRPSISSSDENESSQNTSSTVQYSTVVHSGYRHQVPSVQVFSRSESTQPLLDSEERPEDLQLVDHVDGGDGILPRQQYFKQNCSQHESSPDISHFERSKQVSSVNEEDFVRLKQQISDHISQSCGSGQMKMFQEVSAADAFGPGTEGQVERFETVGMEAATDEGMPKSYLPQTVRQGGYMPQ
As for B2, in “cryo-EM structure”, the “stoichiometry N” value stood at 2.

B3: full-length gp130 S187-Y190 deletion mutant (gp130 ΔSY full-length) (receptor, human, UniProt P40189 23-918, looked up)
chain: ELLDPCGYISPESPVVQLHSNFTAVCVLKEKCMDYFHVNANYIVWKTNHFTIPKEQYTIINRTASSVTFTDIASLNIQLTCNILTFGQLEQNVYGITIISGLPPEKPKNLSCIVNEGKKMRCEWDGGRETHLETNFTLKSEWATHKFADCKAKRDTPTSCTVDYFVNIEVWVEAENALGKVTSDHINFDPVYKVKPNPPHNLSVINSEELSSILKLTWTNPSIKSVIILKYNIQYRTKDASTWSQIPPEDTASTRSSFTVQDLKPFTEYVFRIRCMKEDGKGYWSDWSEEASGITYEDRPSKAPSFWYKIDPSHTQGYRTVQLVWKTLPPFEANGKILDYEVTLTRWKSHLQNYTVNATKLTVNLTNDRYLATLTVRNLVGKSDAAVLTIPACDFQATHPVMDLKAFPKDNMLWVEWTTPRESVKKYILEWCVLSDKAPCITDWQQEDGTVHRTYLRGNLAESKCYLITVTPVYADGPGSPESIKAYLKQAPPSKGPTVRTKKVGKNEAVLEWDQLPVDVQNGFIRNYTIFYRTIIGNETAVNVDSSHTEYTLSSLTSDTLYMVRMAAYTDEGGKDGPEFTFTTPKFAQGEIEAIVVPVCLAFLLTTLLGVLFCFNKRDLIKKHIWPNVPDPSKSHIAQWSPHTPPRHNFNSKDQMYSDGNFTDVSVVEIEANDKKPFPEDLKSLDLFKKEKINTEGHSSGIGGSSCMSSSRPSISSSDENESSQNTSSTVQYSTVVHSGYRHQVPSVQVFSRSESTQPLLDSEERPEDLQLVDHVDGGDGILPRQQYFKQNCSQHESSPDISHFERSKQVSSVNEEDFVRLKQQISDHISQSCGSGQMKMFQEVSAADAFGPGTEGQVERFETVGMEAATDEGMPKSYLPQTVRQGGYMPQ
As to B3, the “stoichiometry N” value in “native gel or EMSA” stood at 2.

B4: full-length gp130 P216H mutant (receptor, human, UniProt P40189 23-918, looked up)
chain: ELLDPCGYISPESPVVQLHSNFTAVCVLKEKCMDYFHVNANYIVWKTNHFTIPKEQYTIINRTASSVTFTDIASLNIQLTCNILTFGQLEQNVYGITIISGLPPEKPKNLSCIVNEGKKMRCEWDGGRETHLETNFTLKSEWATHKFADCKAKRDTPTSCTVDYSTVYFVNIEVWVEAENALGKVTSDHINFDHVYKVKPNPPHNLSVINSEELSSILKLTWTNPSIKSVIILKYNIQYRTKDASTWSQIPPEDTASTRSSFTVQDLKPFTEYVFRIRCMKEDGKGYWSDWSEEASGITYEDRPSKAPSFWYKIDPSHTQGYRTVQLVWKTLPPFEANGKILDYEVTLTRWKSHLQNYTVNATKLTVNLTNDRYLATLTVRNLVGKSDAAVLTIPACDFQATHPVMDLKAFPKDNMLWVEWTTPRESVKKYILEWCVLSDKAPCITDWQQEDGTVHRTYLRGNLAESKCYLITVTPVYADGPGSPESIKAYLKQAPPSKGPTVRTKKVGKNEAVLEWDQLPVDVQNGFIRNYTIFYRTIIGNETAVNVDSSHTEYTLSSLTSDTLYMVRMAAYTDEGGKDGPEFTFTTPKFAQGEIEAIVVPVCLAFLLTTLLGVLFCFNKRDLIKKHIWPNVPDPSKSHIAQWSPHTPPRHNFNSKDQMYSDGNFTDVSVVEIEANDKKPFPEDLKSLDLFKKEKINTEGHSSGIGGSSCMSSSRPSISSSDENESSQNTSSTVQYSTVVHSGYRHQVPSVQVFSRSESTQPLLDSEERPEDLQLVDHVDGGDGILPRQQYFKQNCSQHESSPDISHFERSKQVSSVNEEDFVRLKQQISDHISQSCGSGQMKMFQEVSAADAFGPGTEGQVERFETVGMEAATDEGMPKSYLPQTVRQGGYMPQ
For the molecule B4, the “stoichiometry N” value in “cryo-EM structure” turned out to be 2.

B5: full-length gp130 E195-V196 deletion mutant (gp130 ΔEV) (receptor, human, UniProt P40189 23-918, looked up)
chain: ELLDPCGYISPESPVVQLHSNFTAVCVLKEKCMDYFHVNANYIVWKTNHFTIPKEQYTIINRTASSVTFTDIASLNIQLTCNILTFGQLEQNVYGITIISGLPPEKPKNLSCIVNEGKKMRCEWDGGRETHLETNFTLKSEWATHKFADCKAKRDTPTSCTVDYSTVYFVNIWVEAENALGKVTSDHINFDPVYKVKPNPPHNLSVINSEELSSILKLTWTNPSIKSVIILKYNIQYRTKDASTWSQIPPEDTASTRSSFTVQDLKPFTEYVFRIRCMKEDGKGYWSDWSEEASGITYEDRPSKAPSFWYKIDPSHTQGYRTVQLVWKTLPPFEANGKILDYEVTLTRWKSHLQNYTVNATKLTVNLTNDRYLATLTVRNLVGKSDAAVLTIPACDFQATHPVMDLKAFPKDNMLWVEWTTPRESVKKYILEWCVLSDKAPCITDWQQEDGTVHRTYLRGNLAESKCYLITVTPVYADGPGSPESIKAYLKQAPPSKGPTVRTKKVGKNEAVLEWDQLPVDVQNGFIRNYTIFYRTIIGNETAVNVDSSHTEYTLSSLTSDTLYMVRMAAYTDEGGKDGPEFTFTTPKFAQGEIEAIVVPVCLAFLLTTLLGVLFCFNKRDLIKKHIWPNVPDPSKSHIAQWSPHTPPRHNFNSKDQMYSDGNFTDVSVVEIEANDKKPFPEDLKSLDLFKKEKINTEGHSSGIGGSSCMSSSRPSISSSDENESSQNTSSTVQYSTVVHSGYRHQVPSVQVFSRSESTQPLLDSEERPEDLQLVDHVDGGDGILPRQQYFKQNCSQHESSPDISHFERSKQVSSVNEEDFVRLKQQISDHISQSCGSGQMKMFQEVSAADAFGPGTEGQVERFETVGMEAATDEGMPKSYLPQTVRQGGYMPQ
In the case of B5, the “stoichiometry N” value in “cryo-EM structure” stood at 2.
